# Measurements published in doi:10.1101/2022.08.03.502284 (bioRxiv, 2022).
# Biological target: the molecule itself
# Experiment: ONE expansion microscopy of the purified protein
protein,measurement,value
full-length human GABAA receptor β3 subunit homopentamer (receptor) QSVNDPGNMSFVKETVDKLLKGYDIRLRPDFGGPPVCVGMNIDIASIDMVSEVNMDYTLTMYFQQYWRDKRLAYSGIPLNLTLDNRVADQLWVPDTYFLNDKKSFVHGVTVKNRMIRLHPDGTVLYGLRITTTAACMMDLRRYPLDEQNCTLEIESYGYTTDDIEFYWRGGDKAVTGVERIELPQFSIVEHRLVSRNVVFATGAYPRLSLSFRLKRNIGYFILQTYMPSILITILSWVSFWINYDASAARVALGITTVLTMTTINTHLRETLPKIPYVKAIDMYLMGCFVFVFLALLEYAFVNYIFFGRGPQRQKKLAEKTAKAKNDRSKSESNRVDAHGNILLTSLEVHNEMNEVSGGIGDTRNSAISFDNSGIQYRKQSMPREGHGRFLGDRSLPHKKTHLRRRSSQLKIKIPDLTDVNAIDRWSRIVFPFTFSLFNLVYWLYYVN,binding result,binds
